B1: IL6R-AP002/IL6R-BP257/IL6R-L (antibody, human IgG1, kappa)
heavy 1: QVQLQESGPGLVKPSETLSLTCAVSGHSISHDHAWSWVRQPPGEGLEWIGFISYSGITNYNPSLQGRVTISRDNSKNTLYLQMNSLRAEDTAVYYCARSLARTTAMDYWGEGTLVTVSSASTKGPSVFPLAPSSKSTSGGTAALGCLVKDYFPEPVTVSWNSGALTSGVHTFPAVLQSSGLYSLSSVVTVPSSSLGTQTYICNVNHKPSNTKVDKKVEPKSCDKTHTCPPCPAPDLLGDDSVFLFPPKPKDTLMISRTPEVTCVVVDVSDEDGEVKFNWYVDGVEVHNAKTKPREEQYNSTYRVVSVLTVLHQDWLNGKEYKCKVSNKALPRPIEKTISKAKGQPREPQVYTLPPSRKELTKNQVSLTCLVKGFYPSDIAVEWESNGQPENNYKTTPPVLDSDGSFFLYSKLTVDKSRWQQGNVFSCSVMHEALHNRYTQKSLSLSP
heavy 2: QVQLQESGPGLVKPSETLSLTCAVSGHSISHDHAWSWVRQPPGEGLEWIGFISYSGITNYNPSLQGRVTISRDNSKNTLYLQMNSLRAEDTAVYYCARSLARTTAMDYWGEGTLVTVSSASTKGPSVFPLAPSSKSTSGGTAALGCLVKDYFPEPVTVSWNSGALTSGVHTFPAVLQSSGLYSLSSVVTVPSSSLGTQTYICNVNHKPSNTKVDKKVEPKSCDKTHTCPPCPAPDLLGDDEVFLFPPKPKDTLMISRTPEVTCVVVDVSDEDGEVKFNWYVDGVEVHNAKTKPREEQYNSTYRVVSVLTVLHQDWLNGKEYKCKVSNKALPRPIEKTISKAKGQPREPQVYTLPPSRDELTKNQVSLTCLVKGFYPSDIAVEWESNGQPENNYKTTPPVLDSDGSFFLYSKLTVDKSRWQQGNVFSCSVMHEALHNHYTQESLSLSP
light: not shown
notes: Heterodimerized antibody (two different H chains, same variable region), S239E in one H chain only
B2: GpH7-TA7/GpH7-B78/GpL16-k0 (antibody, human IgG1, kappa)
heavy 1: QVQLVQSGAEVKKPGASVTVSCKASGYTFTDYEMHWIRQPPGEGLEWIGAIDPKTGDTAYSESFQDRVTLTADKSTSTAYMELSSLTSEDTAVYYCTRFYSYTYWGQGTLVTVSSASTKGPSVFPLAPSSKSTSGGTAALGCLVKDYFPEPVTVSWNSGALTSGVHTFPAVLQSSGLYSLSSVVTVPSSSLGTQTYICNVNHKPSNTKVDKKVEPKSCDKTHTCPPCPAPEYLWGPSVFLFPPKPKDTLMISRTPEVTCVVVDVSHEDPEVKFNWYVDGVEVHNAKTKPREEQYNATYRVVSVLTVLHQDWLNGKEYKCKVSNKALPAPIEKTISKAKGQPREPQVYTLPPSRKELTKNQVSLTCLVKGFYPSDIAVEWESNGQPENNYKTTPPVLDSDGSFFLYSKLTVDKSRWQQGNVFSCSVMHEALHNRYTQKSLSLSP
heavy 2: QVQLVQSGAEVKKPGASVTVSCKASGYTFTDYEMHWIRQPPGEGLEWIGAIDPKTGDTAYSESFQDRVTLTADKSTSTAYMELSSLTSEDTAVYYCTRFYSYTYWGQGTLVTVSSASTKGPSVFPLAPSSKSTSGGTAALGCLVKDYFPEPVTVSWNSGALTSGVHTFPAVLQSSGLYSLSSVVTVPSSSLGTQTYICNVNHKPSNTKVDKKVEPKSCDKTHTCPPCPAPELLGGPDVFLFPPKPKDTLMISRTPEVTCVVVDVSHEDPEVKFNWYVDGVEVHNAKTKPREEQYNSTYRVVSVLTVLHQDWLNGKEYKCKVSNKALPLPEEKTISKAKGQPREPQVYTLPPSRDELTKNQVSLTCLVKGFYPSDIAVEWESNGQPENNYKTTPPVLDSDGSFFLYSKLTVDKSRWQQGNVFSCSVMHEALHNHYTQESLSLSP
light: DIVMTQSPLSLPVTPGEPASISCQASESLVHSNRNTYLHWYLQKPGQSPQLLIYKVSNRFSGVPDRFSGSGSGTDFTLKISRVEAEDVGVYYCSQNTHVPPTFGQGTKVEIERTVAAPSVFIFPPSDEQLKSGTASVVCLLNNFYPREAKVQWKVDNALQSGNSQESVTEQDSKDSTYSLSSTLTLSKADYEKHKVYACEVTHQGLSSPVTKSFNRGEC
notes: Anti-glypican-3 IgG1 heterodimer; L234Y/G236W/S298A in H1, S239D/A330L/I332E in H2
B3: GpH7-TA22/GpH7-B78/GpL16-k0 (antibody, human IgG1, kappa)
heavy 1: QVQLVQSGAEVKKPGASVTVSCKASGYTFTDYEMHWIRQPPGEGLEWIGAIDPKTGDTAYSESFQDRVTLTADKSTSTAYMELSSLTSEDTAVYYCTRFYSYTYWGQGTLVTVSSASTKGPSVFPLAPSSKSTSGGTAALGCLVKDYFPEPVTVSWNSGALTSGVHTFPAVLQSSGLYSLSSVVTVPSSSLGTQTYICNVNHKPSNTKVDKKVEPKSCDKTHTCPPCPAPEYLWGPDVFLFPPKPKDTLMISRTPEVTCVVVDVSHEDPEVKFNWYVDGVEVHNAKTKPREEQYNATYRVVSVLTVLHQDWLNGKEYKCKVSNKALPAPIEKTISKAKGQPREPQVYTLPPSRKELTKNQVSLTCLVKGFYPSDIAVEWESNGQPENNYKTTPPVLDSDGSFFLYSKLTVDKSRWQQGNVFSCSVMHEALHNRYTQKSLSLSP
heavy 2: QVQLVQSGAEVKKPGASVTVSCKASGYTFTDYEMHWIRQPPGEGLEWIGAIDPKTGDTAYSESFQDRVTLTADKSTSTAYMELSSLTSEDTAVYYCTRFYSYTYWGQGTLVTVSSASTKGPSVFPLAPSSKSTSGGTAALGCLVKDYFPEPVTVSWNSGALTSGVHTFPAVLQSSGLYSLSSVVTVPSSSLGTQTYICNVNHKPSNTKVDKKVEPKSCDKTHTCPPCPAPELLGGPDVFLFPPKPKDTLMISRTPEVTCVVVDVSHEDPEVKFNWYVDGVEVHNAKTKPREEQYNSTYRVVSVLTVLHQDWLNGKEYKCKVSNKALPLPEEKTISKAKGQPREPQVYTLPPSRDELTKNQVSLTCLVKGFYPSDIAVEWESNGQPENNYKTTPPVLDSDGSFFLYSKLTVDKSRWQQGNVFSCSVMHEALHNHYTQESLSLSP
light: DIVMTQSPLSLPVTPGEPASISCQASESLVHSNRNTYLHWYLQKPGQSPQLLIYKVSNRFSGVPDRFSGSGSGTDFTLKISRVEAEDVGVYYCSQNTHVPPTFGQGTKVEIERTVAAPSVFIFPPSDEQLKSGTASVVCLLNNFYPREAKVQWKVDNALQSGNSQESVTEQDSKDSTYSLSSTLTLSKADYEKHKVYACEVTHQGLSSPVTKSFNRGEC
notes: Anti-glypican-3 IgG1 heterodimer; L234Y/G236W/S239D/S298A in H1, S239D/A330L/I332E in H2

Experiments:
FcgRIIb [1] = target: T1, FcgRIIb (human, UniProt P31994 43-217); test: SPR (Biacore); KD of the variant for FcgRIIaR divided by its KD for FcgRIIb
T1 construct: extracellular domain; Soluble extracellular domain with C-terminal His tag, expressed in FreeStyle293 cells; also called FcγRIIb; 2b; not shown: His tag at the C terminus
T1 sequence (looked up): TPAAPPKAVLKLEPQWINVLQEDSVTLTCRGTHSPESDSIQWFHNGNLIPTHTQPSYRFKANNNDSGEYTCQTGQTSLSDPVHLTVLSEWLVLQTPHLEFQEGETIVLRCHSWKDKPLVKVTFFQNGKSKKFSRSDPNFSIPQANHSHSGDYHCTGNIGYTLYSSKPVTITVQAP

FcgRIIaH = target: T2, FcgRIIaH (human, UniProt P12318 34-217); test: SPR (Biacore), antibody captured on chip, FcgR extracellular domain as analyte
T2 construct: extracellular domain; Soluble extracellular domain with C-terminal His tag, expressed in FreeStyle293 cells; also called FcγRIIa H; FcgRIIa type H; not shown: His tag at the C terminus
T2 sequence (looked up): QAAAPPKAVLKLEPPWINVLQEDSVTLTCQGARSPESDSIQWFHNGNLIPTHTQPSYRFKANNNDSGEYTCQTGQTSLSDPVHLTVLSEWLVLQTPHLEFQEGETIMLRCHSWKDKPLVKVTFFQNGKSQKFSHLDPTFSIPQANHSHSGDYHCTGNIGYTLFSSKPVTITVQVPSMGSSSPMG

FcgRIIaR = target: T3, FcgRIIaR (human, UniProt P12318 34-217); test: as above
T3 construct: extracellular domain; Soluble extracellular domain with C-terminal His tag, expressed in FreeStyle293 cells; also called FcγRIIa R; FcgRIIa type R; not shown: His tag at the C terminus
T3 sequence (looked up): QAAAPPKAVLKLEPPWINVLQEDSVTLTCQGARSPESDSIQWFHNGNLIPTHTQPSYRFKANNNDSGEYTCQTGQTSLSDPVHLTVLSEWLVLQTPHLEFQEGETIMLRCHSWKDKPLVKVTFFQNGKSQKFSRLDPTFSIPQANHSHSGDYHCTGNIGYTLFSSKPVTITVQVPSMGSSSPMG

FcgRIIb [2] = target: T1, FcgRIIb; test: as above
FcγRIIIa [3] = target: T4, FcγRIIIa (human, UniProt P08637 17-208); test: ratio of SPR KDs: KD of GpH7-TA7/GpH7-B78/GpL16-k0 divided by KD of this antibody
T4 construct: extracellular domain; also called FcgRIIIa; CD16A; not shown: His tag attached to the C terminus
Method: (§1) Analysis of interaction between objective antibody and the FcγR was carried out using Biacore T100 (GE Healthcare). HBS-EP+ (GE Healthcare) was used as the running buffer, and the measurement temperature was set to 25° C. Chips produced by immobilizing the antigen peptide by the amine coupling method to a Series S Sencor Chip CM5 (GE Healthcare), or alternatively, chips produced by allowing preliminarily biotinylated antigen peptides to interact with and immobilize onto a Series S Sensor Chip SA (certified) (GE Healthcare) were used. Antibodies of interest were captured onto an antigen peptide-immobilized chip, and allowed to interact to each FcγR diluted with running buffer. To regenerate and repeatedly use the chip, the antibodies captured on the chip were washed off by reacting 10 mM glycine-HCl, pH 1.5.
(§2) Specifically, to calculate association rate constant ka (L/mol/s) and dissociation rate constant kd (1/s), sensorgrams obtained by measurement were processed for global fitting by Biacore Evaluation Software using 1:1 Langmuir binding model and dissociation constant KD (mol/1) was calculated from the resulting values.

FcγRIIIa [4] = target: T4, FcγRIIIa; test: ratio of SPR KDs: KD of GpH7-A5/GpH7-B3/GpL16-k0 divided by KD of this antibody
Method: The prepared antibodies were compared for the FcγRIIIa-binding activity using, as an indicator, KD for FcγRIIIa that was determined according to the method described in Reference Example 2.
as §1, §2

FcγRIIIa [5] = target: T4, FcγRIIIa; test: ratio of SPR KDs: KD of GpH7-G1d/GpL16-k0 divided by KD of this antibody
In short: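 Biacore SPR at 25 °C in HBS-EP+; antibodies captured on antigen peptide-immobilized CM5 or SA chips, FcγRIIIa flowed as analyte, regeneration with 10 mM glycine-HCl pH 1.5. KD from ka and kd by global 1:1 Langmuir fitting; values are the reference antibody's KD divided by this antibody's KD.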

FcγRIIIa [6] = target: T4, FcγRIIIa; test: ratio of SPR KDs: KD of GpH7-TA7/GpH7-B78/GpL16-k0 divided by KD of this antibody; remark: listed apart in the source
From the text: First, it was considered which H chain should be introduced with Y296W. GpH7-TA52 (SEQ ID NO: 44) resulting from the introduction of the mutation Y296W into GpH7-TA7 was constructed, and expressed and prepared in combination with GpH7-B78 according to the method described in Reference Example 1. Furthermore, GpH7-TA58 (SEQ ID NO: 45) resulting from the introduction of Y296W into GpH7-B78 was constructed, and expressed and prepared in combination with GpH7-TA22 according to the method described in Reference Example 1. To assess the effects of combinations with Y296W, the prepared antibodies were compared for the FcγRIIIa-binding activity according to the method described in Reference Example 2 (Table 16).
as §1

FcγRIIIa [7] = target: T4, FcγRIIIa; test: ratio of SPR KDs: KD of GpH7-TA22/GpH7-B78/GpL16-k0 divided by KD of this antibody
From the text: Then, GpH7-TA54 (SEQ ID NO: 46) resulting from the introduction of Y296W into GpH7-TA22 was constructed, and expressed and prepared in combination with GpH7-B78 according to the method described in Reference Example 1. Furthermore, GpH7-TA58 (SEQ ID NO: 45) resulting from the introduction of Y296W into GpH7-B78 was constructed, and expressed and prepared in combination with GpH7-TA22 according to the method described in Reference Example 1. To assess the effect of combination with Y296W, the prepared antibodies were compared for the FcγRIIIa-binding activity according to the method described in Reference Example 2 (Table 17).
as §1

T4 sequence (P08637 17-208): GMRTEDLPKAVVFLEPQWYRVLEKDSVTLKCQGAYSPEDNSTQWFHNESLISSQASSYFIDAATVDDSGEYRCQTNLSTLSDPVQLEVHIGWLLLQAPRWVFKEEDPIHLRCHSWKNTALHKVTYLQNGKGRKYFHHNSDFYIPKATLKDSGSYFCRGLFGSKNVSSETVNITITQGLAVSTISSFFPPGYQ

Row | Binder | KD(IIaR)/KD(IIb) (FcgRIIb [1]) | Relative KD (KD of IL6R-B3/IL6R-L divided by KD of the variant) (FcgRIIaH) | Relative KD (KD of IL6R-B3/IL6R-L divided by KD of the variant) (FcgRIIaR) | Relative KD (KD of IL6R-B3/IL6R-L divided by KD of the variant) (FcgRIIb [2]) | KD ratio (FcγRIIIa [3]) | KD ratio 2 (FcγRIIIa [4]) | KD ratio 1 (FcγRIIIa [5]) | KD ratio (FcγRIIIa [6]) | KD ratio (FcγRIIIa [7])
1 | B1 | 27.7 | 0.2 | 8.3 | 657 |  |  |  |  | 
2 | B2 |  |  |  |  | 1 fold | 347 fold | 261 fold | 1 fold | 
3 | B3 |  |  |  |  | 3.2 fold |  |  |  | 1 fold

From patent US20150344570A1 (published 2015)
